The target of assay [1] is T1, recombinant cynomolgus monkey EpCAM (R&D systems, cat no. 10451-EP) (cynomolgus monkey, UniProt Q1WER1 24-265 (rhesus entry)).
T1 construct: also called cynomolgus monkey EpCAM extracellular domain
T1 sequence: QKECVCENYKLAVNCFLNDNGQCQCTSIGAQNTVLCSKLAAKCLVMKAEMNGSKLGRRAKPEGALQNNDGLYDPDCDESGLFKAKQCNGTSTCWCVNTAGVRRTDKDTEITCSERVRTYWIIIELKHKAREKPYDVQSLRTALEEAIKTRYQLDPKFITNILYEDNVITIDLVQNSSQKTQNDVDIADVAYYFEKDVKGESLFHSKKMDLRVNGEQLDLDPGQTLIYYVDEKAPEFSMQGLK
In words: BLI (Octet HTX); recombinant cynomolgus monkey EpCAM on anti-Penta-HIS sensors, antibody 1.56-100 nM in solution. Background: Biolayer interferometry detects binding as a change in optical thickness at a sensor tip.

Assay [2] has as its target T2, His-tagged FcRn (SinoBiological, cat. no. CT009-H08H-B) (UniProt P55899 24-297; P61769 21-119).
T2 construct: also called neonatal Fc receptor
In words: SPR kinetics at pH 6.0; His-tagged FcRn captured, antibody 0-100 nM as analyte. On the technique in general: Surface plasmon resonance follows binding to a sensor surface in real time, without labels.

The target in assay [3] is T2, His-tagged FcRn (SinoBiological, cat. …). As to the kind of experiment: SPR kinetics at pH 6.0; His-tagged FcRn captured, antibody 0-100 nM as analyte; mean.
Assay [4] concerns the target FcγRIa (CD64 Protein, Human, Recombinant (His Tag), Biotinylated; SinoBiological 10256-H08S-B) (human, UniProt P12314 16-288). In words: SPR (Biacore 8K), His-tagged FcγR captured on anti-His chip, antibody as analyte, endpoint response against concentration.

T2 sequence (P55899 24-297 limits assumed, form in doubt, chain 1 of 2): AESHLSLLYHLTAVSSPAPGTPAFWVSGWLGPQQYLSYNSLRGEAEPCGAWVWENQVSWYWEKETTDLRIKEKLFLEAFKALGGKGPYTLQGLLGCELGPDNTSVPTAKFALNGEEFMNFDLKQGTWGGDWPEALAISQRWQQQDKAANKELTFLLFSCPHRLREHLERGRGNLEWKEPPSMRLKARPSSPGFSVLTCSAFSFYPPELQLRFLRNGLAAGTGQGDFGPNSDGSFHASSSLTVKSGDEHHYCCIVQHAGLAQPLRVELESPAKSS
T2 sequence (P61769 21-119 limits assumed, form in doubt, chain 2 of 2): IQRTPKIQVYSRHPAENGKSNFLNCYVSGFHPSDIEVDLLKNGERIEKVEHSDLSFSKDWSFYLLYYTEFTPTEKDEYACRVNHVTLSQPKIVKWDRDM
FcγRIa (CD64 Protein, Human, Recombinant (His Tag), Biotinylated; SinoBiological 10256-H08S-B), sequence (P12314 16-288 limits assumed, stated change not applied): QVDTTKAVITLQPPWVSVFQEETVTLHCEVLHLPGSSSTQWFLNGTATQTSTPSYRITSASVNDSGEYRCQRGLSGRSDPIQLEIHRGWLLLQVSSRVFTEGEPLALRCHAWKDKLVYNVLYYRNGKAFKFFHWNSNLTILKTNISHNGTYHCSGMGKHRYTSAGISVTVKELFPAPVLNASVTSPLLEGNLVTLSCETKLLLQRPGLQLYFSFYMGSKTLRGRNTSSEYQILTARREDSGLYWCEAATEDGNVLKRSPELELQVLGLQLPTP

B1: BisG2amm-EpCAM-323-A3-AALT/m4-1BB-3H3-AAKR (bispecific antibody, mouse IgG2a, kappa)
heavy 1: QIQLVQSGPELKKPGETVKISCKASGYTFTNYGMNWVRQASGEGLKWMGWINTYTGEPTYGEDFKGRFAFSLETSASTAYLQINNLKNEDTATYFCARFGNYVDYWGQGTTLTVSSAKTTAPSVYPLAPVCGDTTGSSVTLGCLVKGYFPEPVTLTWNSGSLSSGVHTFPAVLQSDLYTLSSSVTVTSSTWPSQSITCNVAHPASSTKVDKKIEPRGPTIKPCPPCKCPAPNAAGGPSVFIFPPKIKDVLMISLSPMVTCVVVDVSEDDPDVQISWFVNNVEVLTAQTQTHREDYNSTLRVVSALPIQHQDWMSGKEFKCKVNNKALPAPIERTISKPKGSVRAPQVYVLPPPEEEMTKKQVTLTCMVTDFMPEDIYVEWTNNGKTELNYKNTEPVLDSDGSYLMYSKLTVEKKNWVERNSYSCSVVHEGLHNHHTTKSFSRTPG
light 1: DIVMTQAAFSNPVTLGTSASISCRSSKNLLHSNGITYLYWYLQKPGQSPHLLIYQMSNLASGVPDRFSSSGSGTDFTLRISRVEAEDVGVYYCAQNLEIPRTFGGGTKLEIKRADAAPTVSIFPPSSEQLTSGGASVVCFLNNFYPKDINVKWKIDGSERQNGVLNSWTDQDSKDSTYSMSSTLTLTKDEYERHNSYTCEATHKTSTSPIVKSFNRNEC
heavy 2: EMQLVESGGGLVQPGRSMKLSCAGSGFTLSDYGVAWVRQAPKKGLEWVAYISYAGGTTYYRESVKGRFTISRDNAKSTLYLQMDSLRSEDTATYYCTIDGYGGYSGSHWYFDFWGPGTMVTVSSAKTTAPSVYPLAPVCGDTTGSSVTLGCLVKGYFPEPVTLTWNSGSLSSGVHTFPAVLQSDLYTLSSSVTVTSSTWPSQSITCNVAHPASSTKVDKKIEPRGPTIKPCPPCKCPAPNAAGGPSVFIFPPKIKDVLMISLSPMVTCVVVDVSEDDPDVQISWFVNNVEVLTAQTQTHREDYNSTLRVVSALPIQHQDWMSGKEFKCKVNNKALPAPIERTISKPKGSVRAPQVYVLPPPEEEMTKKQVTLTCMVKDFMPEDIYVEWTNNGKTELNYKNTEPVLDSDGSYFMYSRLRVEKKNWVERNSYSCSVVHEGLHNHHTTKSFSRTPG
light 2: DIQMTQSPSLLSASVGDRVTLNCRTSQNVYKNLAWYQQKLGEAPKLLIYNANSLQAGIPSRFSGSGSGTDFTLTISSLQPEDVATYFCQQYYSGNTFGAGTNLELKRADAAPTVSIFPPSSEQLTSGGASVVCFLNNFYPKDINVKWKIDGSERQNGVLNSWTDQDSKDSTYSMSSTLTLTKDEYERHNSYTCEATHKTSTSPIVKSFNRNEC
notes: also called BsIgG2amm-EpCAM-323-A3-AALT/m4-1BB-3H3-AAKR; BisIgG2amm-EpCAM-323-A3-AALT/m4-1BB-3H3-AAKR
As to B1, the Response in assay [1] stood at 0.02 nm.

B2: IgG1-b12 (wild-type Fc) (antibody)
heavy: not shown
light: EIVLTQSPGTLSLSPGERATFSCRSSHSIRSRRVAWYQHKPGQAPRLVIHGVSNRASGISDRFSGSGSGTDFTLTITRVEPEDFALYYCQVYGASSYTFGQGTKLERKRTVAAPSVFIFPPSDEQLKSGTASVVCLLNNFYPREAKVQWKVDNALQSGNSQESVTEQDSKDSTYSLSSTLTLSKADYEKHKVYACEVTHQGLSSPVTKSFNRGEC
The term koff denotes the first-order rate constant of dissociation. For orientation: kon means a measure of how fast the partners come together. The term Kd denotes the concentration at which binding is half-saturated. Usually EC50 (read off the curve) stands for the midpoint of the concentration-response curve. Consider B2, for which, in assay [2], the koff worked out at 0.0322 s⁻¹ and the kon was 1.1e+06 M⁻¹ s⁻¹. In assay [3], this molecule registered a Kd of 29 nM. In assay [4], the “EC50 (read off the curve)” value is about 50 nM.

Values taken from patent publication US20260184809A1 (Genmab, published 2026).
